This note sets out measurements from patent US20260176378A1 (DYAX, published 2026).

To fix the notation:
B1: M11-E04 (Fab, V domains shown)
VH: EVQLLESGGGLVQPGGSLRLSCAASGFTFSMYHMNWVRQAPGKGLEWVSGIVSSGGVTFYADSVKGRFTISRDNSKNTLYLQMNSLRAEDTAVYYCARITTVTTGGAFDIWGQGTMVTVSS
VL: DIQMTQSPSSLSASVGDRVTITCRASQSISIYLTWYQHRPGKAPNLLIYGAATLQTGVPSRFSGSGSGTDFTLTIRGLQPEDFATYYCQQTFSLPRTFGQGTKLEIK
B2: M11-E01 (Fab, V domains shown)
VH: EVQLLESGGGLVQPGGSLRLSCAASGFTFSTYEMYWVRQAPGKGLEWVSGIGSSGGMTMYADSVKGRFTISRDNSKNTLYLQMNSLRAEDTAMYYCAREQPGIAALQFWGQGTLVTVSS
VL: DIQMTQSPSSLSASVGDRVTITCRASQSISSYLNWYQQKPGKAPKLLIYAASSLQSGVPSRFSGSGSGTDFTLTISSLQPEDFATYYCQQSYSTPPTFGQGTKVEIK
B3: M11-E06 (Fab, V domains shown)
VH: EVQLLESGGGLVQPGGSLRLSCAASGFTFSQYAMHWVRQAPGKGLEWVSSIYPSGGFTLYADSVKGRFTISRDNSKNTLYLQMNSLRAEDTAMYYCARGGWLAGGELLNWGQGTLVTVSS
VL: DIQMTQSPSSLSASIGDRVTISCRASRGIGTYLNWYQQHAGKAPKLLIRAASSLETGVPPRFSGSGSGTDFTLTISSLQSDDFATYYCQESFTNVYNFGQGTKLEIK
B4: M11-G09 (Fab, V domains shown)
VH: EVQLLESGGGLVQPGGSLRLSCAASGFTFSLYNMTWVRQAPGKGLEWVSYIYPSGGGTHYADSVKGRFTISRDNSKNTLYLQMNSLRAEDTAVYYCARDTGFWSADAFDIWGQGTMVTVSS
VL: DIQMTQSPSSLSASVGDRVTITCRTSQGINHYLNWYQQKPGKAPKILVFAASELQTGVPSRFSGTGSGTSYTLTITSLQPEDVATYYCQQTYTSPYTFGQGTKLEVK
B5: M11-E05 (Fab, V domains shown)
VH: EVQLLESGGGLVQPGGSLRLSCAASGFTFSWYTMGWVRQAPGKGLEWVSWIYFGGLTTYADSVKGRFTISRDNSKNTLYLQMNSLRAEDTAVYYCARLGGPLDAFDIWGQGTMVTVSS
VL: DIQMTQSPSSLSASVGDTVTITCRTSQTINNYLNWYQQRPGEAPKVLIYATHTLESGVPSRFSGSGSGTDFTLTIGSLQPEDFATYYCQQSFAFPYTFGQGTKVEIT
B6: M29-E09 (Fab, V domains shown)
VH: EVQLLESGGGLVQPGGSLRLSCAASGFTFSWYEMGWVRQAPGKGLEWVSSIYSSGGGTMYADSVKGRFTISRDNSKNTLYLQMNSLRAEDTAVYYCARNPQYSGYDRSLSDGAFDIWGQGTMVTVSS
VL: QYELTQPPSVSVSPGQTATITCSGDNLGNKYNSWYQQKPGQSPLLVIYQDTKRPSAIPERFSGSNSGNTATLTISGTQAMDEADYYCQAWDGNVVFGGGTKLTVL
B7: M73-D06 (Fab, V domains shown)
VH: EVQLLESGGGLVQPGGSLRLSCAASGFTFSRYEMYWVRQAPGKGLEWVSSISSSGGPTAYADSVKGRFTISRDNSKNTLYLQMNSLRAEDTAMYYCAKGTPKWELLLRSIYIENAFDIWGQGTMVTVSS
VL: QSELTQPPSASETPGQRVTISCSGSSSNIGSNTVSWFQQLPGSAPRLLIYNDHRRPSGVPDRFSGSKSGTSASLVISGLQSQDEADYYCSAWDDSLNGVVFGGGTKLTVL
B8: M137-E12 (Fab, V domains shown)
VH: EVQLLESGGGLVQPGGSLRLSCAASGFTFSDYRMQWVRQAPGKGLEWVSVIVPSGGNTMYADSVKGRFTISRDNSKNTLYLQMNSLRAEDTAVYYCARGGPGSSIAARRAPTGYYGMDVWGQGTTVTVSS
VL: QSVLIQPPSVSGIPGQRVTISCSGNNSNFGSNTVTWYQQLPGTAPKLLIYSDSRRPSGVPDRFSGSRSDTSASLAISGLQSEDEAEYHCAAWDDSLNGVFGGGTKLTVL
B9: M38-F02 (Fab, V domains shown)
VH: EVQLLESGGGLVQPGGSLRLSCAASGFTFSYYMMVWVRQAPGKGLEWVSYIYSSGGHTVYADSVKGRFTISRDNSKNTLYLQMNSLRAEDTAVYYCARDLFLYDFWSKGAFDIWGQGTMVTVSS
VL: QSVLTQPPSVSVSPGQTASITCSGEKLGDKYVSWYQQKPGQSPSLVICEDSRRPSGIPERFSGSNSGNTATLTISGAQPMDEADYYCQAWDSSTAIFGPGTKVTVL
B10: M27-E05 (Fab, V domains shown)
VH: EVQLLESGGGLVQPGGSLRLSCAASGFTFSWYLMIWVRQAPGKGLEWVSYIYPSGGFTYYADSVKGRFTISRDNSKNTLYLQMNSLRAEDMAVYYCARTEGPLSWGYGMDVWGQGTTVTVSS
VL: not shown
B11: M76-D01 (Fab, V domains shown)
VH: EVQLLESGGGLVQPGGSLRLSCAASGFTFSFYAMHWVRQAPGKGLEWVSGIVPSGGRTHYADSVKGRFTISRDNSKNTLYLQMNSLRAEDTAVYYCATDSSGSPNPLFDYWGQGTLVTVSS
VL: DIVMTQTPPSLPVNPGEPASISCRSSQSLSDDGNTYLDWYLQRPGQSPQLLIHTLSYRASGVPDRFSGSGSGTDFTLKISRVEAEDVGVYYCMQGTHWPPTFGQGTKVEIK
B12: M7-B04 (Fab, V domains shown)
VH: EVQLLESGGGLVQPGGSLRLSCAASGFTFSWYSMVWVRQAPGKGLEWVSSISPSGGLTNYADSVKGRFTISRDNSKNTLYLQMNSLRAEDTAVYYCARHTAARPFYYYYMDVWGKGTTVTVSS
VL: QSALTQPASVSGSPGQSITISCTGTNSDVGNYNLVSWYQQHPGEAPKLLIYEVNKRPSGVSNRFSGSKSGNTASLTISGLQAEDEADYLCCSYAGNRNFYVFGAGTKVTVL
B13: M41-A11 (Fab, V domains shown)
VH: EVQLLESGGGLVQPGGSLRLSCAASGFTFSHYRMSWVRQAPGKGLEWVSSIYPSGGRTVYADSVKGRFTISRDNSKNTLYLQMNSLRAEDTAVYYCAKDKFEWRLLFRGIGNDAFDIWGQGTMVTVSS
VL: QSVLTQPPSVSVSPGQTASITCSGDKLGDKYTSWYQQRPGQSPVLVIYQDIKRPSGIPERFSGSNSGNTATLTISGTQAMDEADYYCQAWDSPNARVFGSGTKVTVL
B14: M35-G04 (Fab, V domains shown)
VH: EVQLLESGGGLVQPGGSLRLSCAASGFTFSYYHMSWVRQAPGKGLEWVSVISPSGGSTKYADSVKGRFTISRDNSKNTLYLQMNSLRAEDTAVYYCARGGSSDYAWGSYRRPYYFDYWGQGTLVTVSS
VL: DIQMTQSPATLSLSPGERATLSCRASQSVSSYLAWYQQKPGQAPRLLIYDASNRATGIPARFSGSGSGTDFTLTISSLEPEDFAVYYCQQRSNWPRGFTFGPGTKVDIK
notes: also called 559A-M35-G04; 559A-M0035-G04
B15: M110-C12 (Fab, V domains shown)
VH: EVQLLESGGGLVQPGGSLRLSCAASGFTFSYYEMDWVRQAPGKGLEWVSGISSSGGHTAYADSVKGRFTISRDNSKNTLYLQMNSLRAEDTATYYCARERRSSSRARYYYGMDVWGQGTTVTVSS
VL: DIQMTQSPLSLSVTPGEPASISCRSSLSLLHSNGYNYLDWYVQRPGQSPQLLMYLSSTRASGVPDRFSGSGSGTDFTLEISRVEAEDVGVYYCMQPLETPPTFGGGTKVEIK
B16: M29-D09 (Fab, V domains shown)
VH: EVQLLESGGGLVQPGGSLRLSCAASGFTFSWYTMVWVRQAPGKGLEWVSYIYPSGGATFYADSVKGRFTISRDNSKNTLYLQMNSLRAEDTAVYYCAMGSYDYIWGFYSDHWGQGTLVTVSS
VL: QSALTQPPTVSVSPGQTARITCSGNKLGDKYVAWYQQKPGQSPMLVIYQDTKRPSRVSERFSGSNSANTATLSISGTQALDEADYYCQAWDSSIVIFGGGTRLTVL
notes: also called 559A-M29-D09 (sFab); 559A-M0029-D09

T1 sequence (P03952 20-390 limits assumed, chain 1 of 2): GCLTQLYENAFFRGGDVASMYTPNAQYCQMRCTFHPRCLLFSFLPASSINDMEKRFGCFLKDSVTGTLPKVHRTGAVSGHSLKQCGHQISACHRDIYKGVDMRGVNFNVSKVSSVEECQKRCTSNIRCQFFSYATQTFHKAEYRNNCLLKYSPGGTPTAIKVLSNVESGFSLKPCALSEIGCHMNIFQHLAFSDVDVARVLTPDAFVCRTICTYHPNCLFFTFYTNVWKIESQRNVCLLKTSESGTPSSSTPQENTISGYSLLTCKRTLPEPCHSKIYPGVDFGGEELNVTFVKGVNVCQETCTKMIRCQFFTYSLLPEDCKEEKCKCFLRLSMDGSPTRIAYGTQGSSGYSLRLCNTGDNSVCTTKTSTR
T1 sequence (P03952 391-638 limits assumed, chain 2 of 2): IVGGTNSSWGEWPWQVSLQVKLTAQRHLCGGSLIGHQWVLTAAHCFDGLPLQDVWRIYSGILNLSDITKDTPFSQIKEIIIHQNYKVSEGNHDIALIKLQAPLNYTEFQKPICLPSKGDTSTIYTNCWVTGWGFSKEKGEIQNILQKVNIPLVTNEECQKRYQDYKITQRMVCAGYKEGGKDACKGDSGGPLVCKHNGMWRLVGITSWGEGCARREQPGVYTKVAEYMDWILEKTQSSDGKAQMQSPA

The first assay addresses T1, human plasma kallikrein (human, UniProt P03952 20-390; P03952 391-638).
T1 construct: two disulfide-linked chains; NP_000883.2; also called pKal; hpKal
Kind of assay: ELISA, biotinylated pKal signal over streptavidin background. A general note: ELISA stands for enzyme-linked immunosorbent assay.
For B1, the “ELISA (T/B)” value was 43.2.
Regarding B2, the “ELISA (T/B)” value is 11.7.
On to B3, for which the “ELISA (T/B)” value came out at 12.6.
For the molecule B4, the “ELISA (T/B)” value was 23.6.
B5: the “ELISA (T/B)” value is 41.4.

The next assay concerns the target T1, human plasma kallikrein. The assay is described as above. This is another data set of the same source.
For the molecule B6, the “ELISA (T/B)” value is 28.8.
For the molecule B7, the “ELISA (T/B)” value stood at 4.
Same read-out and setting: to B8 belongs 4.5; to B9, 33.5; to B10, 41.3.
On to B11, for which the “ELISA (T/B)” value is 11.2.
On the same count and under the same terms, for B12 the value was 4.1.
As to B13, the “ELISA (T/B)” value stood at 28.
Regarding B14, the “ELISA (T/B)” value turned out to be 11.1.
Regarding B15, the “ELISA (T/B)” value amounted to 2.4.
With B16, the “ELISA (T/B)” value stood at 47.5.
